Results reported in patent US20260207704A1, “STAPLED PEPTIDES AND METHODS THEREOF” (priority 2022, published 2026).
*1 amine or outer side, *2 acyl side, *3 side chain or, on linkers, in order; H or OH if unused. Bridges are numbered along the chain shown (N, C = ends). Primed or numbered codes have the meaning given here. [ ]: non-standard residue; d: D form. PyrS2″ = (S)-3-amino-1-((pent-4-en-1-yloxy)carbonyl)pyrrolidine-3-carboxylic acid (olefin stapling residue), C=CCCCOC(=O)N1CC[C@@](N[*:1])(C(=O)[*:2])C1; PyrS2(3) = (S)-3-amino-1-((pent-4-en-1-yloxy)carbonyl)pyrrolidine-3-carboxylic acid, olefin residue, C=CCCCOC(=O)N1CC[C@@](N[*:1])(C(=O)[*:2])C1; PyrS2(5) = (S)-3-amino-1-((pent-4-en-1-yloxy)carbonyl)pyrrolidine-3-carboxylic acid, C=CCCCOC(=O)N1CC[C@@](N[*:1])(C(=O)[*:2])C1; B5(5) = 2-amino-2-(pent-4-en-1-yl)hept-6-enoic acid (two olefin arms), C=CCCCC(CCCC=C)(N[*:1])C(=O)[*:2]; B5(3) = 2-amino-2-(pent-4-en-1-yl)hept-6-enoic acid, two olefin arms, C=CCCCC(CCCC=C)(N[*:1])C(=O)[*:2]; 2F3MeF(3) = aromatic amino acid residue, Cc1cccc(C[C@H](N[*:1])C(=O)[*:2])c1F; 2F3MeF″ = aromatic residue, Cc1cccc(C[C@H](N[*:1])C(=O)[*:2])c1F; Phe(3-COOH) = N[C@@H](Cc1cccc(C(=O)O)c1)C(=O)O; 2F3MeF = Cc1cccc(C[C@H](N[*:1])C(=O)[*:2])c1F; Bta = N[C@@H](Cc1csc2ccccc12)C(=O)O; αAllylPro = C=CC[C@@]1(C(=O)O)CCCN1; BztA = aromatic amino acid residue; tBuAla = CC(C)(C)C[C@H](N)C(=O)O; 3Thi = N[C@@H](Cc1ccsc1)C(=O)O; Cha = N[C@@H](CC1CCCCC1)C(=O)O; Thr(ol) = C[C@@H](O)[C@H](N)CO; PyrS2(4) = not defined here; Nle = CCCC[C@H](N)C(=O)O; AsnR = not defined here; GlnR = not defined here; PL3 = not defined here; B5 = not defined here; Aib = CC(C)(N)C(=O)O

B1: I-68 (peptide)
peptide: Ac-[αAllylPro]D[tBuAla][B5(3)]D[Phe(3-COOH)][Aib]AFK[PyrS2(3)][2F3MeF″][Bta][GlnR]A-NH2
modifications: bridge 10-14; not fully specified (bridges); printed as Ac-PL3-Asp-Npg-B5-Asp-3COOHF-Aib-Ala-Phe-Lys*3-PyrS2-2F3MeF-BztA-GlnR*3-Ala-NH2; reading uncertain
B2: I-61 (peptide)
peptide: Ac-[αAllylPro]D[tBuAla][B5(3)]D[Phe(3-COOH)]QAFK[PyrS2(3)][2F3MeF″][Bta][AsnR]A-NH2
modifications: bridge 10-14; not fully specified (bridges); printed as Ac-PL3-Asp-Npg-B5-Asp-3COOHF-Gln-Ala-Phe-Lys*3-PyrS2-2F3MeF-BztA-AsnR*3-Ala-NH2; reading uncertain
B3: I-63 (peptide)
peptide: Ac-[αAllylPro]D[tBuAla][B5(3)]D[Phe(3-COOH)]AAFK[PyrS2(3)][3Thi][Bta][GlnR][Thr(ol)]
modifications: bridge 10-14; not fully specified (bridges); printed as Ac-PL3-Asp-Npg-B5-Asp-3COOHF-Ala-Ala-Phe-Lys*3-PyrS2-3Thi-BztA-GlnR*3-Throl; reading uncertain
B4: I-60 (peptide)
peptide: Ac-[αAllylPro]D[tBuAla][B5(3)]D[Phe(3-COOH)]QAFK[PyrS2(3)][2F3MeF″][Bta][GlnR]A-NH2
modifications: bridge 10-14; not fully specified (bridges); printed as Ac-PL3-Asp-Npg-B5-Asp-3COOHF-Gln-Ala-Phe-Lys*3-PyrS2-2F3MeF-BztA-GlnR*3-Ala-NH2; reading uncertain
B5: I-72 (peptide)
peptide: Ac-[αAllylPro]D[tBuAla][B5(3)]D[Phe(3-COOH)]TAFK[PyrS2(3)][3Thi][Bta][GlnR]A-NH2
modifications: bridge 10-14; not fully specified (bridges); printed as Ac-PL3-Asp-Npg-B5-Asp-3COOHF-Thr-Ala-Phe-Lys*3-PyrS2-3Thi-BztA-GlnR*3-Ala-NH2; reading uncertain
B6: I-56 (peptide)
peptide: Ac-[αAllylPro]D[tBuAla][B5(3)]D[Phe(3-COOH)]AAFK[PyrS2(3)][2F3MeF″][Bta][AsnR]-NH2
modifications: bridge 10-14; not fully specified (bridges); printed as Ac-PL3-Asp-Npg-B5-Asp-3COOHF-Ala-Ala-Phe-Lys*3-PyrS2-2F3MeF-BztA-AsnR*3-NH2; reading uncertain
B7: I-101 (peptide)
peptide: Ac-[PL3]D[tBuAla][B5]D[Phe(3-COOH)][Cha]AFK[PyrS2(4)][2F3MeF][Bta][GlnR]A-NH2
modifications: staple 1-4; bridge 10-14; not fully specified (residue 10); printed as Ac-PL3-Asp-Npg-B5-Asp-3COOHF-Cha-Ala-Phe-Lys*3-PyrS2-2F3MeF-BztA-GlnR*3-Ala-NH2; reading uncertain; also: PyrS2 tied into a staple, partner not placed
B8: I-62 (peptide)
peptide: Ac-[αAllylPro]D[tBuAla][B5(3)]D[Phe(3-COOH)]AAFK[PyrS2(3)][3Thi][Bta][GlnR][Thr(ol)]
modifications: bridge 10-14; not fully specified (bridges); printed as Ac-PL3-Asp-Npg-B5-Asp-3COOHF-Ala-Ala-Phe-Lys*3-PyrS2-3Thi-BztA-GlnR*3-Throl; reading uncertain
B9: I-64 (peptide)
peptide: Ac-[αAllylPro]D[tBuAla][B5(3)]D[Phe(3-COOH)]AAFK[PyrS2(3)][3Thi][Bta][GlnR]-Prool
modifications: bridge 10-14; not fully specified (bridges); printed as Ac-PL3-Asp-Npg-B5-Asp-3COOHF-Ala-Ala-Phe-Lys*3-PyrS2-3Thi-BztA-GlnR*3-Prool; reading uncertain
B10: I-57 (peptide)
peptide: Ac-[αAllylPro]D[tBuAla][B5(3)]D[Phe(3-COOH)]AAFK[PyrS2(3)][2F3MeF″][Bta][GlnR]A-NH2
modifications: bridge 10-14; not fully specified (bridges); printed as Ac-PL3-Asp-Npg-B5-Asp-3COOHF-Ala-Ala-Phe-Lys*3-PyrS2-2F3MeF-BztA-GlnR*3-Ala-NH2; reading uncertain
B11: I-71 (peptide)
peptide: Ac-[αAllylPro]D[tBuAla][B5(3)]D[Phe(3-COOH)][Nle]AFK[PyrS2(3)][2F3MeF″][Bta][GlnR]A-NH2
modifications: bridge 10-14; not fully specified (bridges); printed as Ac-PL3-Asp-Npg-B5-Asp-3COOHF-nLeu-Ala-Phe-Lys*3-PyrS2-2F3MeF-BztA-GlnR*3-Ala-NH2; reading uncertain
B12: I-97 (peptide)
peptide: Ac-[PL3]D[Cha][B5]D[Phe(3-COOH)]AAFK[PyrS2″][2F3MeF(3)][BztA][GlnR]A-NH2
modifications: staple 1-4 (inferred); bridge 10-14; not fully specified (residue 10, bridges); printed as Ac-PL3-Asp-Cha-B5-Asp-3COOHF-Ala-Ala-Phe-Lys*3-PyrS2-2F3MeF-BztA-GlnR*3-Ala-NH2; reading uncertain; also: Lys10 and GlnR14 marked *3
B13: I-73 (peptide)
peptide: XDXXDXTAFKXXXQA
modifications: not fully specified; Ac-PL3-Asp-Npg-B5-Asp-3COOHF-Thr-Ala-Phe-Lys*3-PyrS2-2F3MeF-BztA-GlnR*3-Ala-NH2
B14: I-55 (peptide)
peptide: Ac-[αAllylPro]D[tBuAla][B5(3)]D[Phe(3-COOH)]AAFK[PyrS2(3)][2F3MeF″][Bta][GlnR]-NH2
modifications: bridge 10-14; not fully specified (bridges); printed as Ac-PL3-Asp-Npg-B5-Asp-3COOHF-Ala-Ala-Phe-Lys*3-PyrS2-2F3MeF-BztA-GlnR*3-NH2; reading uncertain
B15: I-43 (peptide)
peptide: Ac-[αAllylPro]D[tBuAla][B5(5)]D[Phe(3-COOH)]AAF[GlnR][PyrS2(5)][3Thi][Bta]KA-NH2
modifications: bridge 10-14; reading uncertain; also: PL3/B5/PyrS2 staple links not placed, printed as Ac-PL3-Asp-Npg-B5-Asp-3COOHF-Ala-Ala-Phe-GlnR*3-PyrS2-3Thi-BztA-Lys*3-Ala-NH2

target: beta-catenin (human); assay: cell-based or functional assay
Sequence (B6V8E6 146-665 limits assumed): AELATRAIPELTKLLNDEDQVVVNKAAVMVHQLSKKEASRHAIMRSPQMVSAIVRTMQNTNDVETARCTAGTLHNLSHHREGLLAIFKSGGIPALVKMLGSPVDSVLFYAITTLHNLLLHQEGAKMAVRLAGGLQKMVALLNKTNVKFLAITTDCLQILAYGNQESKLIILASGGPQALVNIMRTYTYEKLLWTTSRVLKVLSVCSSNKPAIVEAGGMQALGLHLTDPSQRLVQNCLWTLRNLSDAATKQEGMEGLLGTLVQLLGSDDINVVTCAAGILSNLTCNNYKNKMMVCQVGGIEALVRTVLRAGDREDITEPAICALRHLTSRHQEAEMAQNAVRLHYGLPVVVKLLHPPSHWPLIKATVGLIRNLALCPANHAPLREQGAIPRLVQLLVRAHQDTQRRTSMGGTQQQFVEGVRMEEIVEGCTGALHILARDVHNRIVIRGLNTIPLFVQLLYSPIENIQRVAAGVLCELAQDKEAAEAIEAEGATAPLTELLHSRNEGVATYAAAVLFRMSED

Row | NanoBRET Abs IC50 (bin >1.5 uM) | NanoBRET Abs IC50 | NanoBRET Abs IC50 (bin >3.0 uM) | Binder
1 | < 3 µM | – | – | B1
2 | – | > 10 µM | – | B2
3 | – | – | < 10 µM | B3
4 | – | – | < 10 µM | B4
5 | < 3 µM | – | – | B5
6 | – | – | < 10 µM | B6
7 | < 3 µM | – | – | B7
8 | – | – | < 10 µM | B8
9 | < 3 µM | – | – | B9
10 | < 3 µM | – | – | B10
11 | < 3 µM | – | – | B11
12 | < 3 µM | – | – | B12
13 | < 3 µM | – | – | B13
14 | < 3 µM | – | – | B14
15 | < 3 µM | – | – | B15

target: beta-catenin (human); assay: fluorescence polarization

Row | IC50 | Binder
16 | < 0.05 µM | B1
17 | < 0.05 µM | B2
18 | < 0.05 µM | B3
19 | < 0.05 µM | B4
20 | < 0.05 µM | B5
21 | < 0.05 µM | B6
22 | < 0.05 µM | B7
23 | < 0.05 µM | B8
24 | < 0.05 µM | B9
25 | < 0.05 µM | B10
26 | < 0.05 µM | B11
27 | < 0.05 µM | B12
28 | < 0.05 µM | B13
29 | < 0.05 µM | B14
30 | < 0.05 µM | B15
